Test results reported in the supplement of paper PMC10567573.

B1: VDR (parent)
chain: LIKFQVGLKKLNLHEEEHVLLMAI
B2: CLPTM1 (parent)
chain: MNLHVYISEHEHFTDFNATSALFW

Variants of: B1
Test: protein stability index of a GFP-peptide fusion (GPS, HEK-293T) (PSI 1-6); higher = more stable
Conditions: c terminus: a fixed tail appended
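Further: lentivirally expressed fusions sorted by FACS into six bins by GFP to DsRed ratio, PSI derived from sequencing read proportions per bin multiplied by bin number.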

Protein stability index of substitutions, site by site:
F4: D 3.17 | C 3 | I 3.75 | K 3.04 | H 1.91 | E 2.15 | A 2.1
L1: Q 2.25 | F 2.01 | E 1.56 | I 3.18 | V 2.24 | H 2.73 | M 3.33 | S 3.27 | D 2.9 | N 2.01
I2: F 2.27 | Q 3.14 | D 2.05 | P 2.73 | Y 2.93 | L 3.02 | M 3.15 | R 4.27 | T 2.77 | N 2.31 | H 1.87 | A 3.06 | V 3
K3: G 3.98 | D 2.21 | W 2.91 | P 1.89 | Q 1.21 | T 2.97

Variants of: B2
Test: as above
Conditions: c terminus: a fixed tail appended

Protein stability index of substitutions, site by site:
N2: V 3.88 | C 2.73 | D 1.53 | I 2.04 | G 2.73 | P 1.55 | S 4.89 | L 2.57 | Q 1 | F 3.32 | T 2.58 | M 2.77 | Y 2.55
I7: R 3.14 | K 2.96 | N 3.55 | M 3.09 | S 2.45 | V 3.33 | E 2.48 | L 2.45 | D 2.53 | H 1.79 | C 2 | Y 4.01 | G 2.92 | A 2.6 | W 2.65 | F 2.58
F13: E 3.52 | T 1.95 | K 4.65 | W 4.9 | S 2.4 | H 2.67 | Q 2.2 | V 2.63 | P 2.63 | G 2.42 | N 3.8 | L 4.51 | C 2.51 | R 2.5 | A 3.39
S8: I 1.69 | P 3.32 | W 3.59 | H 3.35 | T 2.08 | L 2.96 | D 3.18 | R 3.37 | Y 2.98
M1: G 2.8 | S 2.69 | T 2.97 | Y 2.55 | N 3.69 | I 3.18 | R 2.51 | K 2.95 | F 2.29 | V 3.6 | Q 2.58 | P 1.93
L3: Q 1.42 | P 1.52 | W 1.98 | T 1.47 | F 2.7 | N 1.2 | D 2.44 | V 1.14 | E 2.62 | G 2.78 | C 1.94 | I 3.08 | S 2.15 | M 2.18 | R 1.96 | K 1.9
F23: C 2.69 | N 2.46 | L 5.95 | Y 5.1 | V 2.13 | I 3.19 | H 3.78 | Q 2.56 | R 2.46 | D 3.62 | E 1.81 | P 2.49
A18: W 2.76 | E 1.97 | H 3.29 | R 3.55 | S 2.46 | L 2.01 | T 1.84 | M 4.1 | K 4.8 | V 2.92 | Q 5.84 | G 3.77 | F 4.2
E9: H 4.25 | Q 2.96 | Y 2.5 | V 3.22 | L 1.96 | K 2.52 | A 2.82 | N 3.59 | F 2.28 | P 1.5 | M 3.76 | G 4.46 | T 2.48
F16: W 2.71 | G 2.76 | K 2.96 | T 1.87 | R 1.62 | N 2.56 | E 2.87 | I 1.71 | S 2.19 | H 3.52 | D 1.79 | Y 2.26
Y6: F 2.84 | E 2.93 | P 1.49 | K 3.26 | S 3.07 | C 2.52 | N 2.22 | H 2.59 | Q 2.4 | A 2.15 | T 4.82 | I 2.61 | R 3.35 | D 2.1 | L 3.45
L22: H 2.6 | A 4.09 | Q 3.16 | R 1.1 | T 3.54 | G 4 | Y 2.2 | C 4.78 | S 1.97 | I 1.59
S20: T 4.14 | I 2.69 | H 4.53 | R 2.1 | Y 3.45 | M 2.64 | D 4.08 | N 3.39 | K 3.57 | F 2.51 | V 2.29 | A 4.95 | Q 2.59 | C 2.75 | G 2.69 | E 2.37
A21: I 2.59 | V 2.4 | H 2.09 | E 2.62 | F 1.95 | C 3.19 | N 2.35 | G 3.69 | T 2.67 | K 3.78
E11: C 3.77 | T 2.47 | I 2.42 | M 3.46 | V 4.02 | A 1.98 | Y 3.67 | Q 2.87 | F 3.56 | D 2.39
N17: P 3.96 | R 2.01 | E 3.66 | F 2.72 | C 2.72 | T 3.19 | G 2.38 | V 2.75 | S 2.44 | A 2.59 | K 3.02 | H 2.13 | I 3.01
H12: M 2.39 | Q 1.98 | P 2.64 | C 2.72 | F 3.38 | Y 2.77 | L 1.41 | W 3.67 | T 2.1 | S 1.83
W24: P 2.76 | E 4.09 | K 1.88 | Q 2.2 | D 3.34 | N 2.98 | H 1.75 | R 2.96 | T 3.19 | C 1.83 | Y 2.95 | S 3.64 | L 4.15 | F 4.25 | I 1.93
T14: I 2.23 | H 4.34 | V 1.81 | P 4.65 | S 3.26 | A 3.39 | M 4.02 | K 3.17 | C 3.04 | Q 2.62 | Y 1.62 | E 3.86
D15: M 3 | E 2.73 | S 4.3 | C 2.43 | A 3.71 | K 2.71 | Q 2.3 | T 3.63 | Y 2.52 | W 3.89
V5: E 1.34 | M 3.04 | H 2.42 | L 2.05 | K 2.01 | Q 1.48 | D 2.1 | W 4.32 | S 3.51 | T 1.76 | A 2.42 | N 1.39 | I 3.89 | Y 2.24
H4: I 2.62 | Y 4.32 | E 1.45 | R 5.47 | L 2.97 | P 1.43 | M 2.69 | K 1.99 | F 1.89 | Q 2.12 | W 4.27
T19: I 3.09 | E 2.59 | V 1.89 | H 2.99 | W 1.67 | D 2.48 | N 3.66 | C 2.92 | M 1.52 | R 2.89 | Y 2.08
H10: E 2.77 | P 2.64 | M 2.73 | S 2.59 | C 2.77 | I 1.28 | D 2.41 | T 3.76 | G 2.58 | V 1.99
